Target: rhCMV (strain 68.1) US28 homolog(s): fractalkine-binding receptor protein expressed on rhCMV-infected rhesus dermal fibroblasts and on rhCMV virions
Test: homologous competition: unlabeled fractalkine displaces 125I-fractalkine from rhCMV-infected rhesus dermal fibroblasts, filter binding

Chain of fractalkine (P78423 25-100 limits assumed): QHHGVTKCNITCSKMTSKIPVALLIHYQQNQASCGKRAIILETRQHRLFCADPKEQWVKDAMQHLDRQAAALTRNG

“fractalkine (from UniProt P78423 25-100) (ligand)” gave an IC50 of 0.044 nM.
